Reference: paper PMC13374049 (Cell host & microbe, 2026)

B1: human anti-MeV H monoclonal antibody 1C02 (IgG1) (antibody, V domains shown)
VH: EVQLLESGAEVKKPGSSVKVSCKASGGTFSSYGISWVRQAPGQGLEWMGGIIPIFGTANYAQKFRGRVTITADKSTSTAYMELSSLRSEDTAVYYCARERITVAGINYYYGMDVWGQGTTVTVSS
VL: RPVLTQPPSVSGAPGQRVTISCTGSSSNIGAGYDVHWYQQLPGTAPKLLIYGDSNRPSGVPDRFSGSKSGTSASLAITGLQAEDEADYYCQSYDSSLSGVVFGGGTKLTVL
B2: human anti-MeV H monoclonal antibody 4D08 (IgG1) (antibody, V domains shown)
VH: QMQLVQSGAEVKKPGASVKVSCKASGYTFTSYAMHWVRQAPGQRLEWMGWINAGNGKTEYSQRFQGRVTITRDTSASTVYMELNSLRSEDTAVYFCARDAYDFWSGYGNWGSNYYYFYMDAWGKGTTVTVSS
VL: EIVMTQSPPSLSASVGDRVTITCRASQSINYYLNWYQQKPGKAPKLLIYAASGLQSGVPSRFSGSGSGTDFTLTISSLQPEDLATYYCQQTYSTPVTFGQGTKLEII

Molecular target: full-length Measles virus hemagglutinin (H) on transfected HEK293T cells (Measles virus, strain IC323, UniProt Q786F2)
Sequence (Q786F2 whole entry): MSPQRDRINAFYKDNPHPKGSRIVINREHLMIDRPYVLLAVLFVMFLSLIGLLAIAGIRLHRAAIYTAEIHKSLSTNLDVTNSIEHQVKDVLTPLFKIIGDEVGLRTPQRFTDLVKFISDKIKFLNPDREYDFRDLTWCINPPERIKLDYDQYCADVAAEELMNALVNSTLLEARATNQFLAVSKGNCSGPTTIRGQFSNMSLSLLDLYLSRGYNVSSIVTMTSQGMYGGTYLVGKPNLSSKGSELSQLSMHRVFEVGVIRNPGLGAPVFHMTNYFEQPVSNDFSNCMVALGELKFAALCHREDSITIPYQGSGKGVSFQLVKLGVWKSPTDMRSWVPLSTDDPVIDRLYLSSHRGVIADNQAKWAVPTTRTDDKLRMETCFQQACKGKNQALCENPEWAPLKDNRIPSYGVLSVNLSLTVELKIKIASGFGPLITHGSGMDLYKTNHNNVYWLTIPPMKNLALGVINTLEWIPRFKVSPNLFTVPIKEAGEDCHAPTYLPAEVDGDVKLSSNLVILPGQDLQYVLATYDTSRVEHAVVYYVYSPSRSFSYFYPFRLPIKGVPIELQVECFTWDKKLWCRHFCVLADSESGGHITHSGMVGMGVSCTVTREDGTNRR
Test: flow cytometry on cells

Row | Binder | binding result
1 | B1 | binds
2 | B2 | binds
